The record followed here is US20230312753A1 (IMMUNORIZON, published 2023).

The target of assay [1] is T1, 5T4 on cells (NCI-H226 endogenous; CHO over-expressing 5T4) (UniProt Q13641 32-420, limits assumed).
T1 construct: whole, on cells
T1 sequence (looked up): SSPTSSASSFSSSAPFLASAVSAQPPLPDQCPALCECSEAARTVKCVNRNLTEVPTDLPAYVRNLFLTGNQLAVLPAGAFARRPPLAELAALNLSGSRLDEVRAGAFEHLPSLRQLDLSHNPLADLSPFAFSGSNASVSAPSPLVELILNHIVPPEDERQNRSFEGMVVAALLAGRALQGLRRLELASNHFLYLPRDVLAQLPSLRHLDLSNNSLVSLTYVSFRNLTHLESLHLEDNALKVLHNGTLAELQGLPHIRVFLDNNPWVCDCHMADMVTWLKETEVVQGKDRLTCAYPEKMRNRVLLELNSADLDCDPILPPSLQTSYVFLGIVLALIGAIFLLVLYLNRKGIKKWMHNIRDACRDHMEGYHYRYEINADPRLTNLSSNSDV
Briefly: FACS on NCI-H226 cells, endogenous 5T4 (FIG. 45B). The method, then: (§1) Suspension cultured cells was harvested directly, and adherent cell were digested using TrypLE Express Enzyme (cat: 12604-013, supplier Life technologies). Centrifuge at 1000 rpm for 5 min and discard the supernatant. Cells are suspended at a concentration of 2×10⁶/mL in FACS buffer (2% FBS in PBS) and add 100 µL/well of cell suspension to the plate (cat #3799, supplier Corning). Centrifuging the plates at 2000 rpm for 5 min and discard the supernatant. Re-suspend the cells in 100 µL/well of Tribody set antibodies (400 nM start, 4-fold dilution, 8 point including 0 point) and incubate the plate for 60 min at 4° C. Centrifuge the plate at 2000 rpm, 4° C. for 5 min and discard supernatant. Then wash the cells 3 times with 170 µL FACS buffer. Re-suspend the cells at 100 µL/well with secondary antibody (goat anti-human Ig Fab-FITC, Cat # 2085-02, Southern biotech) with 1:400 dilution and incubate the plate for 30 min at 4° C. in dark. Centrifuge the plate at 2000 rpm, 4° C. for 5 min and discard supernatant. […] The fluorescence intensity of the staining was measured using flow cytometer (BD, FACSVerse). The geometric mean fluorescence intensity (GMFI; median fluorescence intensity (MFI)) of set antibodies staining was calculated (BD FACSuite software). Dose-response curves were generated and EC50s for thetrispecific variants binding were calculated using GraphPad Prism software.

In assay [2] the target is T2, NKG2A on NK92 cells (endogenous) (UniProt P26715 1-233, limits assumed).
T2 construct: whole, on cells
T2 sequence (P26715 whole entry): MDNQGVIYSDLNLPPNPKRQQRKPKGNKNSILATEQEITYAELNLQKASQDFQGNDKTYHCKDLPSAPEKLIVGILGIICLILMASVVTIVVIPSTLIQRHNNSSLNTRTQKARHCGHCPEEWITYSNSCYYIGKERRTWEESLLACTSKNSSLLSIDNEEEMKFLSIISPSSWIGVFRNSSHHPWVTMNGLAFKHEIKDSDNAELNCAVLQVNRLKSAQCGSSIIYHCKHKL
Briefly: FACS on NK92 cells, endogenous NKG2A (FIG. 45C). As for the experimental part: as §1

Assay [3] concerns the target T3, NKG2A/CD94 on CHO cells (CHOK1-NKG2A-CD94) (human, UniProt P26715 1-233; Q13241 1-179, limits assumed).
T3 construct: whole, on cells; also called CHO cells over-expressing NKG2A/CD94; CHO cell line over expressing ectopic NKG2A
Briefly: FACS on CHO cells over-expressing ectopic NKG2A (NKG2A/CD94 by the legend) (FIG. 45E). The method, then:
as §1

For assay [4], the target named is T1, 5T4 on cells (NCI-H226 endogenous; CHO …). Put plainly: FACS on CHO cells over-expressing ectopic 5T4 (FIG. 45D). As for the experimental part: Then wash the cells 3 times with 170 µL FACS buffer. Re-suspend the cells at 100 µL/well with secondary antibody (goat anti-human Ig Fab-FITC, Cat # 2085-02, Southern biotech) with 1:400 dilution and incubate the plate for 30 min at 4° C. in dark. Centrifuge the plate at 2000 rpm, 4° C. for 5 min and discard supernatant. Then wash the cells 3 times with FACS buffer and analyze the sample with FACS verse. The fluorescence intensity of the staining was measured using flow cytometer (BD, FACSVerse). The geometric mean fluorescence intensity (GMFI; median fluorescence intensity (MFI)) of set antibodies staining was calculated (BD FACSuite software). Dose-response curves were generated and EC50s for thetrispecific variants binding were calculated using GraphPad Prism software.
Results: The expressed trispecific constructs were analyzed for their binding to cells expressing endogenous CD3ε, 5T4 and NKG2A/NKG2D. […] (FIG. 45F).

The target of assay [5] is T4, h5T4-His (recombinant human 5T4) (human, UniProt Q13641 32-355, limits assumed).
T4 construct: Bought protein; also called recombinant 5T4
T4 sequence (looked up): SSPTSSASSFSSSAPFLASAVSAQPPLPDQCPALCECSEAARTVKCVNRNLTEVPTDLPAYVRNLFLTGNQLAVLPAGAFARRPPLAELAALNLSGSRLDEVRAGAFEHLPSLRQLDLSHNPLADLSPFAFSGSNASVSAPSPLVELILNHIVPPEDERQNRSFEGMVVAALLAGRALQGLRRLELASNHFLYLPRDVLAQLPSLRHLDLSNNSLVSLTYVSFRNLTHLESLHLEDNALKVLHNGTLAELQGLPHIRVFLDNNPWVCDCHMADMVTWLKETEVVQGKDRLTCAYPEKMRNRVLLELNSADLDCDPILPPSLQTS
Briefly: ELISA on coated h5T4-His (FIG. 43B). As for the experimental part: (§2) Methods: ELISA binding of Tribody/ProTribody antibody constructs to antigens: Dilute target protein (hCD3epsilon-His (cat # 10977-H08S, supplier Sino Biological); h5T4-His (cat# 19845-H08H, supplier Sino Biological); NKG2A-CD94-ECD-hFc, Lot:20200724002, provided by CP; or NKG2D-ECD-hFc, Lot: 20200413002, provided by CP) into PBS with final concentration of 0.01 µg/mL for hCD3epsilon-His, 0.3 µg/mL for h5T4-His, 1 µg/mL for NKG2A-CD94-ECD-hFc and 0.7 µg/mL for hNKG2D-ECD-hFc respectively and coat 100 µL/well on ELISA plate (cat: 9018, supplier Corning) respectively. Incubate O/N, 4° C. The plates were blocked with 250 µL 1% BSA in PBST for 1 hr at 37° C.Wash 4 times with PBST. All the washes are done using Biotek (Elx 405). All the Tribody set antibodies were diluted to 400 nM and make 4-fold serially dilutions (12 points, including 0 point). Add 100 µL/well diluted antibody constructs solution to plate, incubate for 1 hr at 37° C.Wash 4 times with PBST. Add 100 µL/well anti-human kappa light chain-HRP (1:10000), incubate for 0.5 hr at 37° C. Wash 4 times with PBST. 100 µL/well of TMB substrate was added and incubated at room temperature for 5 min. 100 µL/well of 1N HCl to terminate reaction. Plates were read using ELISA plate reader at 450 nm wavelength (instrunet SpectraMax M5e). Data Analysis was performed using Graphpad prism 5 software by using nonlinear regression (curve fit): log (agonist) vs. response, agonist is antibody concentration (nM) and response is OD value.
(In an ELISA, binding on a coated surface is turned into a signal by an enzyme label.)

Assay [6] has as its target T5, NKG2A-CD94-ECD-hFc (human, UniProt P26715 94-233; Q13241 32-179, limits assumed).
T5 construct: extracellular domain; Lot 20200724002, 'provided by CP'; the two-chain layout here is only the reading of the name; also called human NKG2A (recombinant); NKG2A antigen; not shown: human Fc (hFc)
Briefly: ELISA on coated NKG2A-CD94-ECD-hFc (FIG. 43C). The method, then:
as §2

The target of assay [7] is T3, NKG2A/CD94 on CHO cells …. Put plainly: competitive FACS receptor-ligand blocking assay on CHOK1-NKG2A-CD94 cells, labelled ligand HLA-E PE (FIG. 49).

T3 sequence (P26715 whole entry, chain 1 of 2): as the sequence (P26715 whole entry) above
T3 sequence (Q13241 whole entry, chain 2 of 2): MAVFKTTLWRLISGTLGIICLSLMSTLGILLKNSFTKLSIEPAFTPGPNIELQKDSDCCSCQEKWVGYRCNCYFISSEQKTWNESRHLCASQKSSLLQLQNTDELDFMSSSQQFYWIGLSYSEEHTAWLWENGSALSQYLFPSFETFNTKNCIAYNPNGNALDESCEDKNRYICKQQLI
T5 sequence (P26715 94-233 limits assumed, chain 1 of 2): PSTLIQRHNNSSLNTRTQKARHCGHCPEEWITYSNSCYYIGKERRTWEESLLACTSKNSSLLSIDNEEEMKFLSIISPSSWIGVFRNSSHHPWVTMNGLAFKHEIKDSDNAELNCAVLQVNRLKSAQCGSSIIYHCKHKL
T5 sequence (Q13241 32-179 limits assumed, chain 2 of 2): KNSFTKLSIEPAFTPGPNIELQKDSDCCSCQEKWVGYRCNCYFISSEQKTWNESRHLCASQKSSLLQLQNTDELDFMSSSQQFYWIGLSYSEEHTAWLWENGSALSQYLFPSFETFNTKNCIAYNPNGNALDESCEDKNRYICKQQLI

B1: IM-1063 variant (other)
heavy: GGSGGSEVQLVESGGGLVQPGGSLRLSCAASGFTFNTYAMNWVRQAPGKGLEWVARIRSKYNNYATYYADSVKDRFTISRDDSKNTLYLQMNSLRAEDTAVYYCVRHGNFGNSYVSWFAYWGQGTMVTVSSASTKGPSVFPLAPSSKSTSGGTAALGCLVKDYFPEPVTVSWNSGALTSGVHTFPAVLQSSGLYSLSSVVTVPSSSLGTQTYICNVNHKPSNTKVDKRVEPKSCPPCGGGGSQVQLVQSGAEVKKPGASVKVSCKASGYTFTSYWMNWVRQAPGQGLEWMGRIDPYDSETHYAQKLQGRVTMTTDTSTSTAYMELRSLRSDDTAVYYCARGGYDFDVGTLYWFFDVWGQGTTVTVSSGGGGSGGGGSGGGGSGGGGSDIQMTQSPSSLSASVGDRVTITCRASENIYSYLAWYQQKPGKAPKLLIYNAKTLAEGVPSRFSGSGSGTDFTLTISSLQPEDFATYYCQHHYGTPRTFGGGTKVEIK
light: GGSGGSQAVVTQEPSLTVSPGGTVTLTCRSSTGAVTTSNYANWVQQKPGQAPRGLIGGTNKRAPGTPARFSGSLLGGKAALTLSGVQPEDEAEYYCALWYSNLWVFGGGTKLTVLGQPKAAPSVTLFPPSSEELQANKATLVCLISDFYPGAVTVAWKADSSPVKAGVETTTPSKQSNNKYAASSYLSLTPEQWKSHRSYSCQVTHEGSTVEKTVAPTECPPCSGGGSDIQMTQSPSSLSASVGDRVTITCRASQGISNYLAWFQQKPGKAPKSLIYRANRLQSGVPSRFSGSGSGTDFTLTISSLQPEDVATYYCLQYDDFPWTFGQGTKLEIKGGGGSGGGGSGGGGSGGGGSQVQLVQSGAEVKKPGASVKVSCKASGYTFTSFWMHWVRQAPGQGLEWMGRIDPNRGGTEYNEKAKSRVTMTADKSTSTAYMELSSLRSEDTAVYYCAGGNPYYPMDYWGQGTTVTVSS
notes: CD3/5T4/NKG2A Tribody variant
As usually defined, the EC50 is the concentration needed to bring the measured effect to its halfway point. B1 displayed a concentration giving a half-maximal response (EC50) in assay [1] of 1.64 nM.

B2: IM-1153 Tribody, CD3 mutant variant (other)
heavy: GGSGGSEVQLVESGGGLVQPGGSLRLSCAASGFTFNTYAMNWVRQAPGKGLEWVARIGSGGNGYATYYADSVKDRFTISRDDSKNTLYLQMNSLRAEDTAVYYCVRHGNFGASARSWFAYWGQGTMVTVSSASTKGPSVFPLAPSSKSTSGGTAALGCLVKDYFPEPVTVSWNSGALTSGVHTFPAVLQSSGLYSLSSVVTVPSSSLGTQTYICNVNHKPSNTKVDKRVEPKSCPPCGGGGSDIQMTQSPSSLSASVGDRVTITCRASENIYSYLAWYQQKPGKAPKLLIYNAKTLAEGVPSRFSGSGSGTDFTLTISSLQPEDFATYYCQHHYGTPRTFGGGTKVEIKGGGGSGGGGSGGGGSGGGGSQVQLVQSGAEVKKPGASVKVSCKASGYTFTSYWMNWVRQAPGQGLEWMGRIDPYDSETHYAQKLQGRVTMTTDTSTSTAYMELRSLRSDDTAVYYCARGGYDFDVGTLYWFFDVWGQGTTVTVSS
light: GGSGGSQAVVTQEPSLTVSPGGTVTLTCRSSTGAVTRGNAANWVQQKPGQAPRGLIGGTNARAPGTPARFSGSLLGGKAALTLSGVQPEDEAEYYCALGYSGLWVFGGGTKLTVLGQPKAAPSVTLFPPSSEELQANKATLVCLISDFYPGAVTVAWKADSSPVKAGVETTTPSKQSNNKYAASSYLSLTPEQWKSHRSYSCQVTHEGSTVEKTVAPTECPPCSGGGSDIQMTQSPSSLSASVGDRVTITCRASQGISNYLAWFQQKPGKAPKSLIYRANRLQSGVPSRFSGSGSGTDFTLTISSLQPEDVATYYCLQYDDFPWTFGQGTKLEIKGGGGSGGGGSGGGGSGGGGSQVQLVQSGAEVKKPGASVKVSCKASGYTFTSFWMHWVRQAPGQGLEWMGRIDPNRGGTEYNEKAKSRVTMTADKSTSTAYMELSSLRSEDTAVYYCAGGNPYYPMDYWGQGTTVTVSS
For orientation: IC50 means the concentration at which inhibition is half-maximal. With B2, the concentration giving a half-maximal response (EC50) in assay [2] was 3.7 nM; in assay [3] it was 3 nM; in assay [4] it was 1.33 nM; in assay [5] it was 31 nM; in assay [6], 2.1 nM. Further, in assay [7], the IC50 came out at 18 nM.

B3: IM-1155 Tribody, additional CD3 epsilon mutant variant (other)
heavy: GGSGGSEVQLVESGGGLVQPGGSLRLSCAASGFTFNGGSGGWVRQAPGKGLEWVAGGGSGGGGSGGGSGGSGGGRFTISRDDSKNTLYLQMNSLRAEDTAVYYCVRGGGSGGSGGSGGGGWGQGTMVTVSSASTKGPSVFPLAPSSKSTSGGTAALGCLVKDYFPEPVTVSWNSGALTSGVHTFPAVLQSSGLYSLSSVVTVPSSSLGTQTYICNVNHKPSNTKVDKRVEPKSCPPCGGGGSDIQMTQSPSSLSASVGDRVTITCRASENIYSYLAWYQQKPGKAPKLLIYNAKTLAEGVPSRFSGSGSGTDFTLTISSLQPEDFATYYCQHHYGTPRTFGGGTKVEIKGGGGSGGGGSGGGGSGGGGSQVQLVQSGAEVKKPGASVKVSCKASGYTFTSYWMNWVRQAPGQGLEWMGRIDPYDSETHYAQKLQGRVTMTTDTSTSTAYMELRSLRSDDTAVYYCARGGYDFDVGTLYWFFDVWGQGTTVTVSS
light: GGSGGSQAVVTQEPSLTVSPGGTVTLTCGSSGGGSGGGGSGGWVQQKPGQAPRGLIGGGSGGGSGTPARFSGSLLGGKAALTLSGVQPEDEAEYYCGGGGSGGGGFGGGTKLTVLGQPKAAPSVTLFPPSSEELQANKATLVCLISDFYPGAVTVAWKADSSPVKAGVETTTPSKQSNNKYAASSYLSLTPEQWKSHRSYSCQVTHEGSTVEKTVAPTECPPCSGGGSDIQMTQSPSSLSASVGDRVTITCRASQGISNYLAWFQQKPGKAPKSLIYRANRLQSGVPSRFSGSGSGTDFTLTISSLQPEDVATYYCLQYDDFPWTFGQGTKLEIKGGGGSGGGGSGGGGSGGGGSQVQLVQSGAEVKKPGASVKVSCKASGYTFTSFWMHWVRQAPGQGLEWMGRIDPNRGGTEYNEKAKSRVTMTADKSTSTAYMELSSLRSEDTAVYYCAGGNPYYPMDYWGQGTTVTVSS
For B3, the 50% inhibitory concentration (IC50) in assay [7] was found to be 60 nM.
